Assays:
[1] = target: T1, MSI2 (Musashi-2) (UniProt Q96DH6 Q96DH6:1-328); test: TR-FRET/HTRF; 5 nM MSI2, 1.25 nM RNA; 150 mM NaCl, 25 mM HEPES pH 7.3, 1 mM DTT, 0.05% pluronic F-127, room temperature; details: tags: His tag, LS Bio G2396; named Biotin5')
[2] = target: T2, U1A (UniProt P09012 P09012:1-282); test: competition; displaces Target-Biotin RNA from U1A; titrated from 1000 nM; IC50 only in figure; details: tags: His tag, LS Bio G19194-10
[3] = target: T1, MSI2 (Musashi-2); test: competition; displaces NUMB-Biotin RNA from MSI2; titrated from 1000 nM; IC50 only in figure; details: tags: His tag, LS Bio G2396
[4] = target: T2, U1A; test: TR-FRET/HTRF; 5 nM U1A, 1.25 nM RNA; 150 mM NaCl, 25 mM HEPES pH 7.3, 1 mM DTT, 0.05% pluronic F-127, room temperature; details: tags: His tag, LS Bio G19194-10; named Biotin5')

T2 sequence (P09012 whole entry, one chain of several): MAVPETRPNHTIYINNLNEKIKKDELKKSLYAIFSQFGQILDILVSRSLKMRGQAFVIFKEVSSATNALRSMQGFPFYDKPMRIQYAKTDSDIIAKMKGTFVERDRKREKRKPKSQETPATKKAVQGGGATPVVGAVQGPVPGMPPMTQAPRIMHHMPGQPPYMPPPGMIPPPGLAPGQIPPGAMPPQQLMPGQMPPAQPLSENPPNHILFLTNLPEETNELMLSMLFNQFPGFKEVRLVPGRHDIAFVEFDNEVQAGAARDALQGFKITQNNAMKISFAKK
T1 sequence (Q96DH6 whole entry, one chain of several): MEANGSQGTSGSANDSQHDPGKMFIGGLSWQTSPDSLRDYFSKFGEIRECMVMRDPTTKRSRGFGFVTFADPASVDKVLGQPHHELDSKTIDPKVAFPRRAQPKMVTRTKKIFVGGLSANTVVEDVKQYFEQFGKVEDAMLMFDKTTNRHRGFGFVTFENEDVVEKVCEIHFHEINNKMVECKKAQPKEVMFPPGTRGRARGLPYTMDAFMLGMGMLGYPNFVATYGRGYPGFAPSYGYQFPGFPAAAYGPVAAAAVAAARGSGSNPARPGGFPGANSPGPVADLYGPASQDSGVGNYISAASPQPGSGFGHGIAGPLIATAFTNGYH

B1: NUMB-Biotin RNA probe (ssRNA)
RNA: UAGGUAGUAGUUUUA
[1]
  binding result: binds

B2: U1A Target-CTRL RNA (unlabelled) (ssRNA)
RNA: AUUGCACUCCUUUUA
[2]
  binding result: binds

B3: NUMB-CTRL RNA (unlabelled) (ssRNA)
RNA: UAGGUAGUAGUUUUA
[3]
  binding result: binds

B4: U1A Target-Biotin RNA probe (ssRNA)
RNA: AUUGCACUCCUUUUA
[4]
  binding result: binds

Reference: US20220291209, “MOLECULAR TARGET IN CANCER” (The Regents of the University of California, published 2022)
